{
  "source": "IntAct's records for PubMed 23685356",
  "parents": {"B1": {"name": "Homeobox-containing protein 1 (Homo sapiens), Q6NT76 (parent)", "chain": "MLSSFPVVLLETMSHYTDEPRFTIEQIDLLQRLRRTGMTKHEILHALETLDRLDQEHSDKFGRRSSYGGSSYGNSTNNVPASSSTATASTQTQHSGMSPSPSNSYDTSPQPCTTNQNGRENNERLSTSNGKMSPTRYHANSMGQRSYSFEASEEDLDVDDKVEELMRRDSSVIKEEIKAFLANRRISQAVVAQVTGISQSRISHWLLQQGSDLSEQKKRAFYRWYQLEKTNPGATLSMRPAPIPIEDPEWRQTPPPVSATSGTFRLRRGSRFTWRKECLAVMESYFNENQYPDEAKREEIANACNAVIQKPGKKLSDLERVTSLKVYNWFANRRKEIKRRANIEAAILESHGIDVQSPGGHSNSDDVDGNDYSEQDDSTSHSDHQDPISLAVEMAAVNHTILALARQGANEIKTEALDDD", "partner": "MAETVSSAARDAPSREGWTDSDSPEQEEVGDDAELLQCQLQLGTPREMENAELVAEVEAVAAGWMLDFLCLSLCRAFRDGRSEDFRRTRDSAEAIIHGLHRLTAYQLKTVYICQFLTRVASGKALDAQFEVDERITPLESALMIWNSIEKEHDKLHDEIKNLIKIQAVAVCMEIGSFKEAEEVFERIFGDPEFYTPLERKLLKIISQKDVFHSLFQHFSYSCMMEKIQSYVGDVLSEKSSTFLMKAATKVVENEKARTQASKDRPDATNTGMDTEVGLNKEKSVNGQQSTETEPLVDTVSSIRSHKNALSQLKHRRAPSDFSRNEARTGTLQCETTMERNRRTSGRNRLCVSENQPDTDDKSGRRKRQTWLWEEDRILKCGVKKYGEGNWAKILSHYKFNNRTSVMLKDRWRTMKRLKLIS"}},
  "data": [
    {"variants_of": "B1", "conditions": "with terf1_mouse Terf1, P70371", "values": [
      {"variant": "MLSSFPVVLLETMSHYTDEPRFTIEQIDLLQRLRRTGMTKHEILHALETLDRLDQEHSDKFGRRSSYGGSSYGNSTNNVPASSSTATASTQTQHSGMSPSPSNSYDTSPQPCTTNQNGRENNERLSTSNGKMSPTRYHANSMGQRSYSFEASEEDLDVDDKVEELMRRDSSVIKEEIKAFLANRRISQAVVAQVTGISQSRISHWLLQQGSDLSEQKKRAFYRWYQLEKTNPGATLSMRPAPIPIEDPEWRQTPPPVSATSGTFRLRRGSRFTWRKECLAVMESYFNENQYPDEAKREEIANACNAVIQKPGKKLSDLERVTSLKVYNWFANRRKEIKARANIEAAILESHGIDVQSPGGHSNSDDVDGNDYSEQDDSTSHSDHQDPISLAVEMAAVNHTILALARQGANEIKTEALDDD", "note": "[R339A]", "effect of a mutation on the interaction": "disrupting interaction"}
    ]}
  ]
}
